Details in all cases: both partners purified
Assay [1] concerns the target DDB1–DCAF12 complex (human, UniProt Q5T6F0 1-453; Q5T6F0 1-453). The assay can be described thus: fluorescence polarisation; direct binding; protein titrated from 4 µM in two-fold steps against 20 nM FITC peptide; 20 mM Tris pH 7.5, 150 mM NaCl, 5% glycerol, 0.5 mM TCEP, 0.01% Triton; 45 min at room temperature. A general note: In fluorescence polarisation assays a small probe gives low polarisation when free and higher when bound to something large.

Assay [2] addresses T1, DCAF12 (Δ1–78) (human, UniProt Q5T6F0 79-453).
T1 construct: DDB1- and CUL4-associated factor 12 (DCAF12), human, residues 79-453 (Δ1-78); also called DCAF12:79-453aa; N-terminally truncated DCAF12; source: Sf9 (baculovirus, pFBOH-MHL), purified (TALON beads, Superdex S200 26/60)
The assay is described as above.

For assay [3], the target named is T2, biotinylated DCAF12 (Δ1–78) (human, UniProt Q5T6F0 79-453, biotin).
T2 construct: DDB1- and CUL4-associated factor 12 (DCAF12), human, residues 79-453 (Δ1-78); also called DCAF12:79-453aa; DCAF12 Δ1–78 (pFBD-BirA); source: Sf9 (pFBD-BirA vector), purified (TALON beads, Superdex S200 26/60)
As to the kind of experiment: SPR; biotinylated DCAF12 (Δ1–78) immobilised (~3,200 RU) on a streptavidin chip, Biacore 8K+; peptides injected, 8-point two-fold series from 1 µM; 10 mM HEPES pH 7.4, 150 mM NaCl, 3 mM EDTA, 0.005% P20, 5% glycerol, 2% DMSO; 15 °C; 1:1 Langmuir fit. For orientation: Surface plasmon resonance follows binding to a sensor surface in real time, without labels.

From article PMC11044963, “Probing the CRL4^DCAF12 interactions with MAGEA3 and CCT5 di-Glu C-terminal degrons” (PNAS Nexus, 2024) come the findings set out here.

Where no end group is shown, it is not given here. The star is where a group is joined. FITC = O=C1OC2(c3ccc(O)cc3Oc3cc(O)ccc32)c2ccc(NC(=S)*)cc21

B1: FITC-labeled CCT5 C-terminal degron peptide (peptide)
peptide: {FITC}-IRKPGESEE
notes: nine C-terminal residues of T-complex protein 1 subunit epsilon (CCT5); also called CCT5 peptide
On to B1, for which the Kd – broadly, the equilibrium constant for the complex coming apart – in assay [1] was determined as 80 nM; in assay [2], 370 nM.

B2: unlabeled MAGEA3 C-terminal degron peptide (peptide)
peptide: LHEWVLREGEE
notes: 11 C-terminal residues of melanoma-associated antigen 3 (MAGEA3); also called MAGEA3 peptide
On to B2, for which the Kd in assay [3] stood at 161 nM.

B3: unlabeled CCT5 C-terminal degron peptide (peptide)
peptide: IRKPGESEE
notes: as for B1
In assay [3], B3 had a Kd of 60 nM.

B4: FITC-labeled MAGEA3 C-terminal degron peptide (peptide)
peptide: {FITC}-LHEWVLREGEE
notes: as for B2
Regarding B4, the values for the Kd in assay [1] and in assay [2] were 180 nM and 520 nM, respectively.
